Measurements reported in the supplement of paper PMC10724198.
± gives the standard deviation of the averaged measurements.

Tested on: Saccharomyces cerevisiae
Test: protein stability index of tFT-peptide fusion (C-terminal peptide) (PSI (0-1 scale)); higher = more stable (slower turnover)
Details: temperature: 30 C
Description: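 MPS profiling in S. cerevisiae of the yeast C-terminome library: the last 12 aa of each annotated ORF are fused to the C-terminus of a sfGFP-mCherry timer, after a GGGS linker. Cells are FACS-sorted into 8 mCherry/sfGFP bins and deep-sequenced. PSI runs from 0 (unstable) to 1 (stable); wild type and das1Δ backgrounds, two technical replicates each.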

[1] = genetic background: das1 deletion

Q: For “GYWEDVFVHLAL [HMLALPHA1 C-terminal 12 aa]”, which protein stability index [1] is on record?
A: 0.7685 ± 0.0061

Q: And the protein stability index (genetic background: wild type)?
A: 0.757 ± 0.012

Q: Which results are given for CDLVKNSNGLST [YOR200W C-terminal 12 aa]?
A: protein stability index [1]: 0.68 ± 0.01; protein stability index (genetic background: wild type): 0.685 ± 0.039

Q: Which results are given for FVLKTLNMNVTN [OST1 C-terminal 12 aa]?
A: protein stability index [1]: 0.681 ± 0.0095; protein stability index (genetic background: wild type): 0.668 ± 0.0024

Q: With SSLARPSLFSSE [YBL077W C-terminal 12 aa] as the sequence, how does the protein stability index [1] read?
A: 0.735 ± 0.026

Q: What about the protein stability index (genetic background: wild type) of the same sequence?
A: 0.714 ± 0.056

Q: Which protein stability index [1] does the source give for “PSSDHAKSVMGE [YML101C-A C-terminal 12 aa]” here?
A: 0.707 ± 0.018

Q: And the protein stability index (genetic background: wild type)?
A: 0.6804 ± 0.0044

Q: For GWDLRFEEDPSA [TRP5 C-terminal 12 aa], which protein stability index [1] is on record?
A: 0.731 ± 0.018

Q: And the protein stability index (genetic background: wild type)?
A: 0.6905 ± 0.0042

Q: What does the source list for AMMKAEENFVKS [MAG1 C-terminal 12 aa]?
A: protein stability index [1]: 0.655 ± 0.029; protein stability index (genetic background: wild type): 0.6762 ± 0.00091

Q: TPHNHNQNQHTN [RSF1 C-terminal 12 aa] was tested. Which protein stability index [1] did it give?
A: 0.72 ± 0.029

Q: And the protein stability index (genetic background: wild type)?
A: 0.706 ± 0.03

Q: For KTGKSSVIDLQR [GCN2 C-terminal 12 aa], which protein stability index [1] is on record?
A: 0.712 ± 0.031

Q: And the protein stability index (genetic background: wild type)?
A: 0.726 ± 0.11

Q: HHNQIGVPRVEN [GID8 C-terminal 12 aa] was tested. Which protein stability index [1] did it give?
A: 0.679 ± 0.013

Q: What about the protein stability index (genetic background: wild type) of the same sequence?
A: 0.674 ± 0.011

Q: What does the source list for HEVQNAEQEVAQ [MAK16 C-terminal 12 aa]?
A: protein stability index [1]: 0.673 ± 0.0074; protein stability index (genetic background: wild type): 0.681 ± 0.034

Q: How did the protein stability index [1] turn out when CFSCFHLSTHTN [YDR157W C-terminal 12 aa] was run?
A: 0.725 ± 0.018

Q: What about the protein stability index (genetic background: wild type) of the same sequence?
A: 0.6252 ± 0.005

Q: Which results are given for MKKLQNKKSSAV [CAB5 C-terminal 12 aa]?
A: protein stability index [1]: 0.695 ± 0.05; protein stability index (genetic background: wild type): 0.677 ± 0.021

Q: With SGGVLDSGDVSL [YGR182C C-terminal 12 aa] as the sequence, how does the protein stability index [1] read?
A: 0.684 ± 0.022

Q: What about the protein stability index (genetic background: wild type) of the same sequence?
A: 0.661 ± 0.029

Q: YWRKQYPDADIP [YCR007C C-terminal 12 aa] was tested. Which protein stability index [1] did it give?
A: 0.71925 ± 0.00051

Q: And the protein stability index (genetic background: wild type)?
A: 0.747 ± 0.025

Q: For QVPEEDFPVVNY [DNL4 C-terminal 12 aa], which protein stability index [1] is on record?
A: 0.697 ± 0.009

Q: And the protein stability index (genetic background: wild type)?
A: 0.718 ± 0.034

Q: Which protein stability index [1] does the source give for QTDNTSATNQLL [YSP2 C-terminal 12 aa] here?
A: 0.7 ± 0.0084

Q: And the protein stability index (genetic background: wild type)?
A: 0.701 ± 0.029

Q: How did the protein stability index [1] turn out when EIGHMYQKIKKS [MNN11 C-terminal 12 aa] was run?
A: 0.721 ± 0.0077

Q: And the protein stability index (genetic background: wild type)?
A: 0.317 ± 0.014

Q: What does the source list for GGRNQYGGDDDY [DDR48 C-terminal 12 aa]?
A: protein stability index [1]: 0.698 ± 0.015; protein stability index (genetic background: wild type): 0.6858 ± 0.0067

Q: What does the source list for GELFQIVSNQSS [STE6 C-terminal 12 aa]?
A: protein stability index [1]: 0.702 ± 0.017; protein stability index (genetic background: wild type): 0.679 ± 0.0082

Q: How did the protein stability index [1] turn out when EESDSPESTAFY [PMC1 C-terminal 12 aa] was run?
A: 0.699 ± 0.01

Q: What about the protein stability index (genetic background: wild type) of the same sequence?
A: 0.6671 ± 0.0055

Q: What does the source list for DLQSLIESNGFA [PFK27 C-terminal 12 aa]?
A: protein stability index [1]: 0.689 ± 0.021; protein stability index (genetic background: wild type): 0.689 ± 0.026

Q: What does the source list for KVIRGKGFKLPK [ERD2 C-terminal 12 aa]?
A: protein stability index [1]: 0.675 ± 0.0093; protein stability index (genetic background: wild type): 0.667 ± 0.036

Q: How did the protein stability index [1] turn out when LKSATESFVATF [ATP1 C-terminal 12 aa] was run?
A: 0.701 ± 0.0097

Q: And the protein stability index (genetic background: wild type)?
A: 0.694 ± 0.014

Q: RKSHERPDDVSV [SUR7 C-terminal 12 aa] was tested. Which protein stability index [1] did it give?
A: 0.692 ± 0.018

Q: What about the protein stability index (genetic background: wild type) of the same sequence?
A: 0.69 ± 0.028

Q: Which protein stability index [1] does the source give for WRRSKSISTHLR [YLR366W C-terminal 12 aa] here?
A: 0.711 ± 0.0074

Q: And the protein stability index (genetic background: wild type)?
A: 0.681 ± 0.034

Q: Which results are given for MQTHYILMKAQW [PPM1 C-terminal 12 aa]?
A: protein stability index [1]: 0.579 ± 0.008; protein stability index (genetic background: wild type): 0.5353 ± 0.0021

Q: Which results are given for SSAHMSSNAIQR [CDC10 C-terminal 12 aa]?
A: protein stability index [1]: 0.7077 ± 0.0023; protein stability index (genetic background: wild type): 0.721 ± 0.016

Q: Which results are given for LCGAPNCKGFLN [SET1 C-terminal 12 aa]?
A: protein stability index [1]: 0.677 ± 0.026; protein stability index (genetic background: wild type): 0.671 ± 0.036

Q: For QTINTKPLYIKN [YGR290W C-terminal 12 aa], which protein stability index [1] is on record?
A: 0.686 ± 0.02

Q: And the protein stability index (genetic background: wild type)?
A: 0.665 ± 0.075

Q: Which protein stability index [1] does the source give for VFQRAIEKALGE [STR2 C-terminal 12 aa] here?
A: 0.707 ± 0.011

Q: What about the protein stability index (genetic background: wild type) of the same sequence?
A: 0.716 ± 0.013

Q: With SFWPHVAGELEY [INM2 C-terminal 12 aa] as the sequence, how does the protein stability index [1] read?
A: 0.72 ± 0.014

Q: And the protein stability index (genetic background: wild type)?
A: 0.693 ± 0.04

Q: For VASLPSRYSRYD [ALR1 C-terminal 12 aa], which protein stability index [1] is on record?
A: 0.711 ± 0.024

Q: And the protein stability index (genetic background: wild type)?
A: 0.654 ± 0.013

Q: Which protein stability index [1] does the source give for SPELHTYETIYD [ROY1 C-terminal 12 aa] here?
A: 0.752 ± 0.0093

Q: What about the protein stability index (genetic background: wild type) of the same sequence?
A: 0.7694 ± 0.0053

Q: With “ACIFNVATASIP [YGR270C-A C-terminal 12 aa]” as the sequence, how does the protein stability index [1] read?
A: 0.719 ± 0.036

Q: What about the protein stability index (genetic background: wild type) of the same sequence?
A: 0.692 ± 0.03

Q: What does the source list for SLEHFIDSVSSL [TRP4 C-terminal 12 aa]?
A: protein stability index [1]: 0.7199 ± 0.0016; protein stability index (genetic background: wild type): 0.672 ± 0.013

Q: How did the protein stability index [1] turn out when ISWLEKMKKFFH [MAM33 C-terminal 12 aa] was run?
A: 0.7163 ± 0.0048

Q: What about the protein stability index (genetic background: wild type) of the same sequence?
A: 0.693 ± 0.009

Q: For RYIRHLQQNVST [PHO4 C-terminal 12 aa], which protein stability index [1] is on record?
A: 0.688 ± 0.016

Q: What about the protein stability index (genetic background: wild type) of the same sequence?
A: 0.683 ± 0.037

Q: QMVRDEGFEKNP [GPM3 C-terminal 12 aa] was tested. Which protein stability index [1] did it give?
A: 0.68 ± 0.038

Q: And the protein stability index (genetic background: wild type)?
A: 0.644 ± 0.036

Q: What does the source list for NIEKGVNFVASK [MDH1 C-terminal 12 aa]?
A: protein stability index [1]: 0.6837 ± 0.0049; protein stability index (genetic background: wild type): 0.677 ± 0.052

Q: For YVKEAQSVVTSL [YIR043C C-terminal 12 aa], which protein stability index [1] is on record?
A: 0.672 ± 0.013

Q: What about the protein stability index (genetic background: wild type) of the same sequence?
A: 0.659 ± 0.029
